Assay results published in patent US9492510B2, “Composition and method for inhibiting tumor cell growth” (St. Jude Children's Research Hospital, priority 2006, dated 2016).

What was measured:
[1] = Kinetic parameters for CPT-11 hydrolysis by purified recombinant CEs; format: biochemical; settings: hCE1 and rCE values rest on cited data
Description: To directly compare the abilities of the mammalian CEs to hydrolyze CPT-11, a series of biochemical studies were carried out using the purified proteins in vitro. These experiments determined the Km, Vmax, kcat and kcat/Km values for the different enzymes.
Protein Purification. […] For hiCE, an alternative purification procedure was developed using DEAE chromatography and elution with a pH/salt gradient.
Determination of Kinetic Parameters for Substrate Hydrolysis.

[2] = Carboxylesterase (CE) activity of whole cell sonicates of transiently transfected Cos7 cells, o-NPA substrate; format: biochemical
Description: (§1) Whole cell sonicates were monitored for CE activity. Results were expressed as nmoles o-nitrophenol produced per minute per milligram of total protein. To correct for differences in CE expression within transfected cells, the enzyme activity values were corrected for the level of immunoreactive CE protein as determined using a western blot analysis.
(§2) Carboxylesterase Assays. CE activity was determined using a spectrophotometric assay with 3 mM o-nitrophenyl acetate (o-NPA) as a substrate (Potter, et al. 1998. Cancer Res. 52:2646-2651; Wierdl, et al. 2001. Cancer Res. 61:5078-5082; Beaufay, et al. 1974. J. Cell Biol. 61:188-200). Data were expressed as nmoles o-nitrophenol produced per minute per milligram of protein. To correct for differences in CE expression within transfected cells, the enzyme activity values were corrected for the level of immuno-reactive CE protein as determined from western analyses.
(§3) Transfection of Cell Lines. Transient transfection of Cos7 cells was achieved by electroporation (Potter, et al. 1998. Cancer Res. 52:2646-2651). For the generation of stable cell lines, cDNAs were ligated into pIRESneo and U373MG cells were electroporated under similar conditions. Transfectants were selected in media containing 400 μg/ml of G418. Since the CE cDNA was linked via an internal ribosome entry sequence (IRES) to the neomycin gene, selection of individual G418-resistant clones was not necessary. Routinely, whole cell sonicates obtained from these pooled populations of cells contained 200-500 nmoles/min/mg of CE activity.
(§4) Western Analysis. Cell extracts were separated in 4-20% pre-cast SDS-PAGE gels (Invitrogen, Carlsbad, Calif.) and following transfer to Immobilon-P membranes by electroblotting (Matsuidaira. 1990. Methods Enzymol. 182:602-613), western analysis was performed using known methods (Morton & Potter. 1998. J. Pharmacol. Expt. Therap. 286:1066-1073). CEs were identified using an anti-peptide antibody raised against the C-terminal amino acids […] In all experiments, membranes were re-probed with an anti-TFIID antibody to confirm equal loading, and to correct for any differences in total protein. The molecular weight of immuno-reactive bands was determined using pre-stained molecular weight protein markers (Pierce, Rockford, Ill.). Densitometric quantitation of CE expression was performed using One-Dscan gel analysis software (Scanalytics Inc, Fairfax, Va.).

[3] = tested on: U373MG cells; assay: Growth inhibition by CPT-11 of U373MG cells; format: cell-based, human; settings: for sensitization of cells to CPT-11: U373MG cells expressing the labelled enzyme
Description: Experiments were also performed in human brain tumor cells (U373MG) where the growth of the cells was examined in cells that expressed the mutant form of the human CE enzyme.
Experiments were also performed to determine whether cells expressing a secreted form of hCElm6 (SEQ ID NO:16) produced media that had CE activity.
as §3, with “necessary.” for “necessary. Routinely, whole cell sonicates obtained from these pooled populations of cells contained 200-500 nmoles/min/mg of CE activity.”
(§5) Construction of Adenovirus. Replication-deficient adenovirus expressing hCElm6 or rCE were constructed using standard protocols (Wierdl, et al. 2001. Cancer Res. 61:5078-5082). Multiplicity of infection (moi) was defined as the number of plaques produced in 1×10^6 293 cells in a total volume of 1 ml of media after incubation with virus for 1 hour.
Growth Inhibition Assays.

[4] = CPT-11 conversion assay (CPT-11 to SN-38) with extracts of transfected COS-7 cells, HPLC; format: biochemical; settings: Cos7 cell extracts
Description: as §1
This was necessary since it was unclear whether the mutations would influence the ability of the CEs to metabolize o-NPA, which is used as a measure of enzyme activity.
CPT-11 Conversion Assays. […] An equal volume of acidified methanol was added to terminate the reactions and particulate matter was removed by centrifugation at 100,000 g for 5 minutes at 4° C. Concentrations of both drugs in the supernatant were then determined by HPLC (Guichard, et al. 1998. Clin. Cancer Res. 4:3089-3094; Morton, et al. 2000. Cancer Res. 60:4206-4210).
as §4

[5] = CE activity (o-NPA) in human tumor cell lines expressing CE after plasmid transfection or adenoviral transduction; format: biochemical; settings: for CE Activity: ± SD, U373MG cells stably transfected (pIRESneo) expressing the enzyme
Description: […], it was observed that expression of hiCE following plasmid-mediated transfection was frequently lower than that seen with rCE or […]. […] Since expression of the transgene from this expression vector is co-regulated with the neo gene via an IRES sequence, selection with similar concentrations of G418 should result in cell lines that express approximately equal levels of recombinant protein. However, the average levels of CE activity in U373hiCE, U373hCE1 and U373hCE1m6 cells were 287.6±76.6, 1077.1±77.5, and 466.5±52.6 nmoles/min/mg, respectively.
as §2, §3, §5

[6] = substrate: CCc1c2c(nc3ccc(OC(=O)N4CCC(N5CCCCC5)CC4)cc13)-c1cc3c(c(=O)n1C2)COC(=O)[C@]3(O)CC; assay: purified protein, by the assay type; settings: other: CPT-11 hydrolysis, hCE1m6
[7] = Table 3, Cos7 whole cell sonicates, 3 mM o-NPA, nmoles o-nitrophenol per min per mg
[8] = Table 4, rCE mutant panel, Cos7 extracts, o-NPA

| Molecule | Ratio kcat/Km as compared to hCE1 [1] | CE Activity [2, 7] [nmol/min/mg] | CE Activity [2, 8] [nmol/min/mg CE] | sensitization of cells to CPT-11 [3] | CPT-11 Converting Activity ([4]; Table 4, rCE mutant panel) | average levels of CE activity ([5]; U373MG cells stably transfected with pIRESneo constructs, monitored over an extended time period) [nmol/min/mg] | CE Activity [5] [nmol/min/mg] | fold reduction in the IC50 value for CPT-11 ([3]; U373MG cells expressing intracellular (u373IRESmut6) or secreted (U373IRESmut6C) form, FIG. 4) [fold] | Km [6] [µM] | CPT-11 Converting Activity ([4]; Table 3, 5 μM CPT-11, 1 hour, corrected for CE protein by western) [pmol/hr/mg CE] |
| --- | --- | --- | --- | --- | --- | --- | --- | --- | --- | --- |
| hCE1: wild-type human liver carboxylesterase, Genbank M73499 (protein, listed as Homo sapiens) MWLRAFILATLSASAAWGHPSSPPVVDTVHGKVLGKFVSLEGFAQPVAIFLGIPFAKPPLGPLRFTPPQPAEPWSFVKNATSYPPMCTQDPKAGQLLSELFTNRKENIPLKLSEDCLYLNIYTPADLTKKNRLPVMVWIHGGGLMVGAASTYDGLALAAHENVVVVTIQYRLGIWGFFSTGDEHSRGNWGHLDQVAALRWVQDNIASFGGNPGSVTIFGESAGGESVSVLVLSPLAKNLFHRAISESGVALTSVLVKKGDVKPLAEQIAITAGCKTTTSAVMVHCLRQKTEEELLETTLKMKFLSLDLQGDPRESQPLLGTVIDGMLLLKTPEELQAERNFHTVPYMVGINKQEFGWLIPMLMSYPLSEGQLDQKTAMSLLWKSYPLVCIAKELIPEATEKYLGGTDDTVKKKDLFLDLIADVMFGVPSVIVARNHRDAGAPTYMYEFQYRPSFSSDMKPKTVIGDHGDELFSVFGAPFLKEGASEEEIRLSKMVMKFWANFARNGNPNGEGLPHWPEYNQKEGYLQIGANTQAAQKLKDKEVAFWTNLFAKKAVEKPPQTEHIEL | 1 | 119.0 ± 5.0 | 329.2 ± 11.6 | not sensitized | Not Detected | 1077.1 ± 77.5 | 1016.4 ± 45.5 |  |  |  |
| secreted form of hCE1mut6: mutant human CE lacking the six C-terminal amino acid residues (Thr-Glu-His-Ile-Glu-Leu); expressed from pIRESmut6C (protein, Synthethic mutant human carboxylesterase, mutant human CE lacking the six C-terminal amino acid residues (Thr-Glu-His-Ile-Glu-Leu); expressed from pIRESmut6C) MWLRAFILATLSASAAWGHPSSPPVVDTVHGKVLGKFVSLEGFAQPVAIFLGIPFAKPPLGPLRFTPPQPAEPWSFVKNATSYPPMCTQDPKAGQLLSELFTNRKENIPLKLSEDCLYLNIYTPADLTKKNRLPVMVWIHGGGLMVGAASTYDGLALAAHENVVVVTIQYRLGIWGFFSTGDEHSRGNWGHLDQVAALRWVQDNIASFGGNPGSVTIFGESAGGESVSVLVLSPLAKNLFHRAISESGVALTSVLVKKGDVKPLAEQIAITAGCKTTTSAVMVHCLRQKTEEELLETTLKMKFLSLDLQGDPRESQPLLGTVIDGMLLLKTPEELQAERNFHTVPYMVGINKQEFGWIIPMQMLGYPLSEGQLDQKTAMSLLWKSYPLVCIAKELIPEATEKYLGGTDDTVKKKDLFLDLIADVMFGVPSVIVARNHRDAGAPTYMYEYRYRPSFSSDMRPKTVIGDHGDELFSVFGAPFLKEGASEEEIRLSKMVMKFWANFARNGNPNGEGLPHWPEYNQKEGYLQIGANTQAAQKLKDKEVAFWTNLFAKKAVEKPPQ |  |  |  |  |  |  |  | ~130 |  |  |
| hCE1 variant hCE1m6 (hCE1mut6; L362M, M363L, K459R, F448Y, Q449R, L358I, S364G, Q362 insertion), SEQ ID NO:3 (Homo sapiens; … (protein) GHPSSPPVVDTVHGKVLGKFVSLEGFAQPVAIFLGIPFAKPPLGPLRFTPPQPAEPWSFVKNATSYPPMCTQDPKAGQLLSELFTNRKENIPLKLSEDCLYLNIYTPADLTKKNRLPVMVWIHGGGLMVGAASTYDGLALAAHENVVVVTIQYRLGIWGFFSTGDEHSRGNWGHLDQVAALRWVQDNIASFGGNPGSVTIFGESAGGESVSVLVLSPLAKNLFHRAISESGVALTSVLVKKGDVKPLAEQIAITAGCKTTTSAVMVHCLRQKTEEELLETTLKMKFLSLDLQGDPRESQPLLGTVIDGMLLLKTPEELQAERNFHTVPYMVGINKQEFGWIIPMQMLGYPLSEGQLDQKTAMSLLWKSYPLVCIAKELIPEATEKYLGGTDDTVKKKDLFLDLIADVMFGVPSVIVARNHRDAGAPTYMYEYRYRPSFSSDMRPKTVIGDHGDELFSVFGAPFLKEGASEEEIRLSKMVMKFWANFARNGNPNGEGLPHWPEYNQKEGYLQIGANTQAAQKLKDKEVAFWTNLFAKKAVEKPPQTEHIEL |  |  |  |  |  |  |  |  | 6.25 ± 0.59 |  |
| rCE: wild-type rabbit liver carboxylesterase, Genbank AF036930 (protein, listed as Oryctolagus cuniculus) GSLRFAPPQPAESWSHVKNTTSYPPMCSQDAVSGHMLSELFTNRKENIPLKFSEDCLYLNIYTPADLTKRGRLPVMVWIHGGGLMVGGASTYDGLALSAHENVVVVTIQYRLGIWGFFSTGDEHSRGNWGHLDQVAALRWVQDNIANFGGDPGSVTIFGESAGGQSVSILLLSPLTKNLFHRAISESGVALLSSLFRKNTKSLAEKIAIEAGCKTTTSAVMVHCLRQKTEEELMEVTLKMKFMALDLVGDPKENTAFLTTVIDGVLLPKAPAEILAEKKYNMLPYMVGINQQEFGWIIPMQMLGYPLSEGKLDQKTATELLWKSYPIVNVSKELTPVATEKYLGGTDDPVKKKDLFLDMLADLLFGVPSVNVARHHRDAGAPTYMYEYRYRPSFSSDMRPKTVIGDHGDEIFSVLGAPFLKEGATEEEIKLSKMVMKYWANFARNGNPNGEGLPQWPAYDYKEGYLQIGATTQAAQKLKDKEVAFWTELWAKEAARPRETEHIEL | 650 | 332.7 ± 17.2 | 243.1 ± 17.0 | sensitized | 75.6 pmol/hr/mg CE |  | 601.0 ± 20.5 |  |  | 41 |
